Reference: patent US6153391A, “Interruption of binding of MDM2 and P53 protein and therapeutic application thereof” (University of Dundee, priority 1998, dated 2000)

Target: T1, mouse MDM2 (Mus musculus, UniProt P23804)
T1 construct: gene PCR-cloned from mouse prostate cell line
Assay: ELISA of MDM2 binding to immobilised biotinylated p53 peptides (peptide library, alanine and conserved substitution series)
Conditions: consensus peptide and alanine substitution series, Example 3, FIG. 5
Description: The libraries were in the form of 15 mer peptides linked to biotin via an additional peptide spacer region of serine-glycine-serine-glycine, and each peptide shared a 5 amino acid overlap with the previous peptide in the primary sequence. ELISA plates were coated with 100 μof 5 μg/ml streptavidin (vector labs) per well and incubated overnight at 37° C. and then blocked with phosphate buffered saline (PBS) containing 2% bovine serum albumin (BSA) for 1 hour at room temperature. The stock biotinylated peptides were diluted to 5 μg/ml in PBS containing 0.1 BSA and 50 μl of each were plated into designed wells and then incubated at room temperature for 1 hour. […] In the case of cell extracts bound protein was detected with the appropriate primary antibody at 1-3 μg/ml, and followed by an anti-mouse horse radish peroxidase conjugate and 3'3'4'4'-tetramethyl benzidine (TMB) substrate as in the standard ELISA assay (Harlow, E., et al (1988). Antibodies: a laboratory manual. New York. Cold Spring Harbor Laboratory Press and Lane, 1988).
These libraries consisted of 15 amino acid long sections of the p53 primary amino acid sequence, that consecutively overlapped by 5 amino acids, and were each attached to biotin via a 4 amino acid long spacer. […] The results are presented alongside the ELISA readings for extract of insect cells alone not expressing mouse MDM2. […]

T1 sequence (P23804 whole entry): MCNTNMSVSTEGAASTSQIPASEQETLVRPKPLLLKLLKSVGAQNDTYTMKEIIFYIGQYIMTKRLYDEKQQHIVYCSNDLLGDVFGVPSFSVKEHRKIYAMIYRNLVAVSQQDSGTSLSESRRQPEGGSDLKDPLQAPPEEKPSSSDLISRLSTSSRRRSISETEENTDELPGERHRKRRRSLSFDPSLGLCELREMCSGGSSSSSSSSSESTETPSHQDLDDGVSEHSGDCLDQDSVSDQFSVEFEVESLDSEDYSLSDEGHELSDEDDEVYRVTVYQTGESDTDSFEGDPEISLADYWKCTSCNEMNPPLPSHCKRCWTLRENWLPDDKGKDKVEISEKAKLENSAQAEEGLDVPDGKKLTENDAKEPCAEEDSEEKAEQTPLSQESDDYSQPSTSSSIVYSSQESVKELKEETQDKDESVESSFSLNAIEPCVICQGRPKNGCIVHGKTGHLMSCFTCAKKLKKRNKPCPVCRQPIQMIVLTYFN

QETFSDLWKL
level of MDM2 binding as measured by ELISA: higher level of binding of MDM2
